From IntAct's records for PubMed 36127429 come the findings set out here.

To fix the notation:
B1: Protein SHMOOSE (Homo sapiens), C0HM83 (parent)
chain: MPPCLTTWLSQLLKDNSYPLVLGPKNFGATPNKSNNHAHYYNHPNPDFPNSPHPYHPR
partner: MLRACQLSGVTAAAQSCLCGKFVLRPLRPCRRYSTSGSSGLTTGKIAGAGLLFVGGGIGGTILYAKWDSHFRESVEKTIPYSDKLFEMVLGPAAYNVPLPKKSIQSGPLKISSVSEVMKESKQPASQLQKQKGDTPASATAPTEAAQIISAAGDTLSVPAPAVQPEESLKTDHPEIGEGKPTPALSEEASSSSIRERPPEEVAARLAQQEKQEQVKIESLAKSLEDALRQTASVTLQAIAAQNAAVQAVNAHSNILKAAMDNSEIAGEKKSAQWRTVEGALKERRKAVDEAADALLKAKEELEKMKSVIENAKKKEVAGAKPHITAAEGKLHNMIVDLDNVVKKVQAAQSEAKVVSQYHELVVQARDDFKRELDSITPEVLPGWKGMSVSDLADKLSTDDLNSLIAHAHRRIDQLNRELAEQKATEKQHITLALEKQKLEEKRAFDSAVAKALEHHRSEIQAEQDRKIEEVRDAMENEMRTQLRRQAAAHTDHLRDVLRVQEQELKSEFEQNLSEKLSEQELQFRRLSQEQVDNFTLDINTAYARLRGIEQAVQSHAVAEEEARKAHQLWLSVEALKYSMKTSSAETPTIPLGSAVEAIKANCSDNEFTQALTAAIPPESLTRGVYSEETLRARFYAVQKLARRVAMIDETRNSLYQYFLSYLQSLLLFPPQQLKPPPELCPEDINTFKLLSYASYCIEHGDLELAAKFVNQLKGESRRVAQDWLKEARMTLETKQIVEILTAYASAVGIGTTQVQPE

Variants of B1 are the subject of this test. The note with it: with mic60_human IMMT.
In the case of D47N, the “effect of a mutation on the interaction” value is “with no effect”.
